Assay results published in the supplement of paper PMC7125110.
± gives the standard error. Variants at the floor of the assay were thinned out.

B1: glmS ribozyme (parent)
chain: AUAAAAGCGCCAGAACUACAGAAAUGUAGUUGACGAGGAGGAGGUUUAUCGAAUUUUCGGCGGAUGCCUCCAAA

Legend:
Details in all cases: with glucosamine-6-phosphate
glucosamine-6-phosphate [1] = variants of: B1; test: self-cleavage kobs at 160 uM GlcN6P; higher = faster cleavage; RNA array
How it was run: (§1)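 Barcoded ribozyme variants on sequenced MiSeq chips were transcribed in situ by E. coli RNA polymerase and followed at 37 °C through a hybridised Cy3 probe. Glucosamine-6-phosphate at 40 μM to 10 mM in HEPES/KCl/Mg(OAc)2 buffer was flowed in, and tiles were imaged over ~14 h. Signals were normalised to baseline and to non-cleaving reference variants, and per-tile medians were fit to one- or two-exponential decays to give kobs. Weighted Michaelis–Menten fits across concentrations gave kcat and KM.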

glucosamine-6-phosphate [2] = variants of: B1; test: self-cleavage kobs at 2500 uM GlcN6P; higher = faster cleavage; RNA array
How it was run: as §1

glucosamine-6-phosphate [3] = variants of: B1; test: self-cleavage kobs at 640 uM GlcN6P; higher = faster cleavage; RNA array
How it was run: as §1

glucosamine-6-phosphate [4] = variants of: B1; test: self-cleavage kobs at 10000 uM GlcN6P; higher = faster cleavage; RNA array
How it was run: as §1

Variant	self-cleavage kobs at 160 uM GlcN6P (glucosamine-6-phosphate [1]) [s⁻¹]	self-cleavage kobs at 2500 uM GlcN6P (glucosamine-6-phosphate [2]) [s⁻¹]	self-cleavage kobs at 640 uM GlcN6P (glucosamine-6-phosphate [3]) [s⁻¹]	self-cleavage kobs at 10000 uM GlcN6P (glucosamine-6-phosphate [4]) [s⁻¹]
G66U C68U C70U	7.05e-05 ± 2.3e-05	0.000104 ± 2.7e-05		
G44U G59U	< 1e-05	< 1e-05	< 1e-05	< 1e-05
G41U G63A C71U	< 1e-05			
C50A G63A	< 1e-05			< 1e-05
G38U C58U G63U	< 1e-05			
A53C U54G	0.000308 ± 0.00011	0.000803 ± 0.00021	0.000352 ± 0.00012	
U45G C61U G63A U65C	< 1e-05	< 1e-05	< 1e-05	
A48C U69A	< 1e-05		< 1e-05	
C50G A53U C68G	0.000236 ± 6.7e-05		0.000668 ± 0.00018	
G40C U46A A64G C70A	< 1e-05			
A52G C68G U69C	5.98e-05 ± 2.7e-05			
U57C G60A	< 1e-05	< 1e-05	< 1e-05	
A42U U56G C61U	< 1e-05			
A36U U54G	< 1e-05			
C50A U54G C67G	0.000319 ± 0.00012	0.000101 ± 4.6e-05	0.000125 ± 4.8e-05	
A42C U54C A64G C68A	< 1e-05	< 1e-05	< 1e-05	< 1e-05
U54G A64G C68A	5.71e-05 ± 2.2e-05	0.000107 ± 2.7e-05	6.86e-05 ± 1.5e-05	
U46G A53U U65G	4.57e-05 ± 1.6e-05	0.000976 ± 0.00018	0.000379 ± 9.9e-05	
U45A U54C	0.00513 ± 0.001		0.0141 ± 0.0026	
A42G U46G C67U	0.000274 ± 8.3e-05	0.00148 ± 0.00058		
G43A A48C	< 1e-05		< 1e-05	< 1e-05
A39U A53G C71A	0.000185 ± 3.5e-05	0.00139 ± 0.00042		0.00323 ± 0.00089
G38U A39G G41C A42U U57C	< 1e-05			
G37A A48G A52G G62A	< 1e-05			
G41U G43U G51U	< 1e-05	< 1e-05		
G40A C68G	< 1e-05	< 1e-05	< 1e-05	< 1e-05
U57G C58G A64G	6.2e-05 ± 2.9e-05	4.48e-05 ± 1.9e-05	8.58e-05 ± 3.5e-05	

Variant	self-cleavage kobs at 160 uM GlcN6P (glucosamine-6-phosphate [1]) [s⁻¹]	self-cleavage kobs at 2500 uM GlcN6P (glucosamine-6-phosphate [2]) [s⁻¹]	self-cleavage kobs at 640 uM GlcN6P (glucosamine-6-phosphate [3]) [s⁻¹]	self-cleavage kobs at 10000 uM GlcN6P (glucosamine-6-phosphate [4]) [s⁻¹]
C50A U57G U65C C70G	8.04e-05 ± 2.6e-05	0.000108 ± 3.5e-05	0.000128 ± 3.7e-05	3.25e-05 ± 1.6e-05
C50A G66A C70G	5.52e-05 ± 2.4e-05	0.000169 ± 4.8e-05	0.000243 ± 6.1e-05	
G51C G59U C71U	< 1e-05	< 1e-05		
G59C G63U C71A	< 1e-05			
A52U U57A C68U	8.55e-05 ± 2.1e-05	0.000613 ± 0.00014	0.000196 ± 5.5e-05	
U46A U65G	0.000293 ± 6.7e-05	0.00122 ± 0.00021	0.000975 ± 0.00016	0.00301 ± 0.00058
A39C G43C	< 1e-05		< 1e-05	< 1e-05
G40U G60A C70A	< 1e-05	< 1e-05		
G37C G44A U49A C68U	< 1e-05	< 1e-05		
A39C G43C C67U	< 1e-05	< 1e-05		
G66A C67A C70U	0.000193 ± 4.7e-05	0.000861 ± 0.0002	0.000467 ± 0.0001	
G38A G44A C50U	< 1e-05		< 1e-05	
U49A U56C A64U	< 1e-05	< 1e-05	< 1e-05	
A53G G63U	< 1e-05	< 1e-05	< 1e-05	
G37A A39C U47C C71U	< 1e-05	3.22e-05 ± 1.4e-05		
A52G A64C	< 1e-05	< 1e-05	< 1e-05	
U2C U31C			0.000805 ± 0.00025	
G44U C50U C71A	< 1e-05		< 1e-05	
C50G G66C	0.000112 ± 3.9e-05			
A6C C10A A15G C16G G63A		< 1e-05	< 1e-05	< 1e-05
G62A G63U C67U	< 1e-05		< 1e-05	
A42U A53G A64C	< 1e-05		< 1e-05	
A6C G9A G37A G51C			< 1e-05	
U45C A53U U69C	9.96e-05 ± 2.7e-05	0.000752 ± 0.00022	0.000489 ± 0.00012	
C58G U69C	6.56e-05 ± 2e-05	0.00011 ± 3.2e-05	0.000102 ± 3.1e-05	
A39C U65A C71G	< 1e-05	< 1e-05	< 1e-05	
